Columns and labels:
[1] = target: N-type VGCCs in rat brain membranes (rat) (UniProt Q02294); assay: displacement of 125I-GVIA from rat brain membranes
[2] = target: N-type VGCCs controlling excitatory synaptic transmission between primary afferents and dorsal horn (rat) (UniProt Q02294); assay: cell-based or functional assay
[3] = target: N-type VGCCs controlling excitatory synaptic transmission between primary afferents and dorsal horn (rat), Q02294; assay: cell-based or functional assay
[4] = target: N-type VGCCs in rat brain membranes (rat), Q02294; assay: displacement of 125I-GVIA from rat brain membranes
Chain of N-type VGCCs in rat brain membranes (rat), Q02294 (Q02294 whole entry): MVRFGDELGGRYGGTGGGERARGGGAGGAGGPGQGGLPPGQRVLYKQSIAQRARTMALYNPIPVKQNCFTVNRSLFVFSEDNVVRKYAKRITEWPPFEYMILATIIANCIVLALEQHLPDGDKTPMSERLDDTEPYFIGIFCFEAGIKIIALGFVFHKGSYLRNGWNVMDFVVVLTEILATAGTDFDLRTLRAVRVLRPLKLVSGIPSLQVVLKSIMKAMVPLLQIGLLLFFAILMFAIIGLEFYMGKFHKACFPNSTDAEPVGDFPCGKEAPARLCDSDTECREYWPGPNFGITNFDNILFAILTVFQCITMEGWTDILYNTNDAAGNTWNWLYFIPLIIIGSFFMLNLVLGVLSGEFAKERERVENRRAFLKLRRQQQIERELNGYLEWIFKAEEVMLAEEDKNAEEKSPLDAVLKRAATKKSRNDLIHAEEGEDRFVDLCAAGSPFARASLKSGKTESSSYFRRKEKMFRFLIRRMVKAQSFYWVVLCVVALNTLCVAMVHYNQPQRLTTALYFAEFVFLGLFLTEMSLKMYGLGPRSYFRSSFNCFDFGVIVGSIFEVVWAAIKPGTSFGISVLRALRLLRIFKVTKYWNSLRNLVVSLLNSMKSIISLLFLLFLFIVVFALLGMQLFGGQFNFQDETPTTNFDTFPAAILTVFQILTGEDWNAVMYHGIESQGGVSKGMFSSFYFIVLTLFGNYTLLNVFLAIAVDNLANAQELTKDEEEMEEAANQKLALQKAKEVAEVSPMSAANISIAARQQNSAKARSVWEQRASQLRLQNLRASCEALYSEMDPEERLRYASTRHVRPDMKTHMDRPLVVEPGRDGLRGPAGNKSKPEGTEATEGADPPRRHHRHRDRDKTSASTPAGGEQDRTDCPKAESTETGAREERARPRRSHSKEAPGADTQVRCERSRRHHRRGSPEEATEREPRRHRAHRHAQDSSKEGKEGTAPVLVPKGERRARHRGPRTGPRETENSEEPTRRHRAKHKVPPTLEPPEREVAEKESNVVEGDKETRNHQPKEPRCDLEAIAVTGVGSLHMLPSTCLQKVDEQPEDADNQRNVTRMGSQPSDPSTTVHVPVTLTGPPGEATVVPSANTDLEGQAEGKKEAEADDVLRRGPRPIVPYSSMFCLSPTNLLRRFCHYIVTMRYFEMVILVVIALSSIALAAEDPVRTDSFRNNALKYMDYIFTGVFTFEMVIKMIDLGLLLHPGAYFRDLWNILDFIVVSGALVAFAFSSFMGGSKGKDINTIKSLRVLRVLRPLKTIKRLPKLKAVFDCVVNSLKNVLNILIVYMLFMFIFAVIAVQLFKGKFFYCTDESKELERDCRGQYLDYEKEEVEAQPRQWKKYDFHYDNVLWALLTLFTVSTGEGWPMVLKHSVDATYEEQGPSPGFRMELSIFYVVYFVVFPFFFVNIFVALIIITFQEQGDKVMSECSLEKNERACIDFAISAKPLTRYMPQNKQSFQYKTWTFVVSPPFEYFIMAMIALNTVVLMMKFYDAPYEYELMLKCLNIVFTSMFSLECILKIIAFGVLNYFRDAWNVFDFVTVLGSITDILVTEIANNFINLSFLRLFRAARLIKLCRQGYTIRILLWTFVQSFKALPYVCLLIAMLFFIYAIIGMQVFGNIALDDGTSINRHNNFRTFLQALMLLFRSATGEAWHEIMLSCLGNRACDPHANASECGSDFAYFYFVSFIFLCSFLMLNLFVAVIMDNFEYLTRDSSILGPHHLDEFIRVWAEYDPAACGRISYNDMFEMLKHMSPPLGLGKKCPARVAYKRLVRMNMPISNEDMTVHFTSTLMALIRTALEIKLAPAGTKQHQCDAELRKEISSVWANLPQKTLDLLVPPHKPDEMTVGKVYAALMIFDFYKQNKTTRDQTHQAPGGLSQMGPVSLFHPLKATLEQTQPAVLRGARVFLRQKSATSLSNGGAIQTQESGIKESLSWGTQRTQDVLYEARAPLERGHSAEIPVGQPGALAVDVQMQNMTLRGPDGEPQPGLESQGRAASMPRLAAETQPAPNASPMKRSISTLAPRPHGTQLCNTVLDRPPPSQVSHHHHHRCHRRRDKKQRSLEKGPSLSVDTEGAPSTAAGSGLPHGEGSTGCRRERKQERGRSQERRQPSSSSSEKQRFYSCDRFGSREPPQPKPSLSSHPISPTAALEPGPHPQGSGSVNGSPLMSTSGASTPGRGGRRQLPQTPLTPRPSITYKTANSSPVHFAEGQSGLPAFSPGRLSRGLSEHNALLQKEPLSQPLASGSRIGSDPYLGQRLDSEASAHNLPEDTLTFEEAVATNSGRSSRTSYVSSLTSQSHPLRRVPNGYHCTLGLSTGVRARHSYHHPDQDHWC

Chain of N-type VGCCs in rat brain membranes (rat) (Q02294 whole entry): as above
Chain of N-type VGCCs controlling excitatory synaptic transmission between primary afferents and dorsal horn (rat) (Q02294 whole entry): as above
Chain of N-type VGCCs controlling excitatory synaptic transmission between primary afferents and dorsal horn (rat), Q02294 (Q02294 whole entry): as above

With ω-conotoxin CVIE (peptide) as the molecule, how does the affinity [1] read?
Its affinity is 37 µM.

What about the pIC50 [1] of the same molecule?
The pIC50 was 10.7 M.

What about the EPSC amplitude recovered 10-15 min after washout, percent of control [2] of the same molecule?
The EPSC amplitude recovered 10-15 min after washout, percent of control was 78%.

B1: ω-conotoxin CVIF (peptide)
peptide: CKGKGASCRRTSYDCCTGSCRSGRC
modifications: not checked
Which results are given for B1?
EPSC amplitude recovered 10-15 min after washout, percent of control [3]: 73%; affinity [4]: 98 µM; pIC50 [4]: 10.6 M

B2: ω-conotoxin CVID, P58920 46-72 (peptide)
peptide: CKSKGAKCSKLMYDCCSGSCSGTVGRC
modifications: not checked
What does the source list for B2?
affinity [4]: 12 µM; pIC50 [4]: 11 M

B3: ω-conotoxin GVIA, P01522 46-72 (peptide)
peptide: CKSPGSSCSPTSYNCCRSCNPYTKRCY
modifications: not checked
What does the source list for B3?
affinity [4]: 24 µM; pIC50 [4]: 10.6 M

Reference: patent US20120329717A1
